# Test results from patent publication US20180162928A1 (Janssen / Centocor, published 2018).
# Changes are numbered by the printed parent chain.
# B1: ISOP121BR5P1C5 (designed binder, not shown: small tags and cut ends)
# chain: LPAPKNLVVSRVTEDSARLSWFRLRIVQTFDSFLIQYQESEKVGEAIVLTVPGSERSYDLTGLKPGTEYTVSIYGVITVVELLQQSNPLSAIFTT
# notes: FN3 domain; E. coli lysate in the ELISA
# B2: ISOP121GR5P1D2 (designed binder, not shown: small tags and cut ends)
# chain: LPAPKNLVVSRVTEDSARLSWTAPDAAFDSFHILYQERAQSGEAIGLVVPGSERSYDLTGLKPATEYSVQIFGVKGGKLSNPLWAWFTT
# notes: as for B1
# B3: ISOP121GR5P1G7 (designed binder, not shown: small tags and cut ends)
# chain: LPAPKNLVVSRVTEDSARLSWTAPDAAFDSFHIRYHEYDKNGEAIQLYVPGSERSYDLTGLKPGTEYGVYIHGVKGGGRSKPLWAHFTT
# notes: as for B1
# B4: ISOP194GR9P1E9 (designed binder, not shown: small tags and cut ends)
# chain: B3 chain with Y70F, H72W, G78L, R79K, H86W
# notes: as for B1
# B5: ISOP121AR5P1A8 (designed binder, not shown: small tags and cut ends)
# chain: LPAPKNLVVSRVTEDSARLSWGLEWAYQFFDSFLIQYQESEKVGEAIVLTVPGSERSYDLTGLKPGTEYTVSIYGVYLRAIEFYSNPLSAIFTT
# notes: as for B1
# B6: ISOP121FR5P1H8 (designed binder, not shown: small tags and cut ends)
# chain: LPAPKNLVVSRVTEDSARLSWTAPDAAFDSFVIYYSEQHFYGEAIVLTVPGSERSYDLTGLKPGTEYVVKIYGVKGGETSKPLSAIFTT
# notes: as for B1
# B7: ISOP121BR5P1B5 (designed binder, not shown: small tags and cut ends)
# chain: LPAPKNLVVSRVTEDSARLSWRKQEQYFDSFLIQYQESEKVGEAIVLTVPGSERSYDLTGLKPGTEYTVSIYGVYQRGYHNWFSNPLSAIFTT
# notes: as for B1
# B8: ISOP121BR5P1A2 (designed binder, not shown: small tags and cut ends)
# chain: B7 chain with K23F, Q24S, E25Q, Q26E, Y27W, Q76A, Y79I, N81K, F83L
# notes: as for B1
# B9: ISOP121BR5P1C6 (designed binder, not shown: small tags and cut ends)
# chain: B7 chain with Q76S, G78P, Y79K, H80A, N81E, W82F, F83T
# notes: as for B1
# B10: ISOP121BR5P1E7 (designed binder, not shown: small tags and cut ends)
# chain: B7 chain with Y75K, Q76K, R77W, G78P, Y79S, H80T, N81T, W82T, F83T
# notes: as for B1
# B11: ISOP121AR5P1H2 (designed binder, not shown: small tags and cut ends)
# chain: LPAPKNLVVSRVTEDSARLSWVIDEFIPLFDSFLIQYQESEKVGEAIVLTVPGSERSYDLTGLKPGTEYTVSIYGVLAKNIGISNPLSAIFTT
# notes: as for B1
# B12: ISOP121GR5P1F7 (designed binder, not shown: small tags and cut ends)
# chain: LPAPKNLVVSRVTEDSARLSWTAPDAAFDSFGINYVERASEGEAIDLGVPGSERSYDLTGLKPGTEYFVKIFGVKGGIPSVPLWAWFTT
# notes: as for B1
# B13: ISOP121GR5P1F10 (designed binder, not shown: small tags and cut ends)
# chain: LPAPKNLVVSRVTEDSARLSWTAPDAAFDSFFIDYVERATVGEAIALNVPGSKRSYALTGLKPGTEYFVKIRGVKGGLKSKPLWAWFTT
# notes: as for B1
# Target: unrelated Fc-fused recombinant protein
# Assay: ELISA, lysate on plate-bound antigen
row,ELISA Fc Control (RSU),Binder
1,400 RSU,B1
2,720 RSU,B2
3,800 RSU,B3
4,720 RSU,B4
5,560 RSU,B5
6,560 RSU,B6
7,720 RSU,B7
8,720 RSU,B8
9,720 RSU,B9
10,800 RSU,B10
11,880 RSU,B11
12,640 RSU,B12
13,640 RSU,B13

# Target: human serum albumin (human) (UniProt P02768)
# Sequence (P02768 25-609 limits assumed): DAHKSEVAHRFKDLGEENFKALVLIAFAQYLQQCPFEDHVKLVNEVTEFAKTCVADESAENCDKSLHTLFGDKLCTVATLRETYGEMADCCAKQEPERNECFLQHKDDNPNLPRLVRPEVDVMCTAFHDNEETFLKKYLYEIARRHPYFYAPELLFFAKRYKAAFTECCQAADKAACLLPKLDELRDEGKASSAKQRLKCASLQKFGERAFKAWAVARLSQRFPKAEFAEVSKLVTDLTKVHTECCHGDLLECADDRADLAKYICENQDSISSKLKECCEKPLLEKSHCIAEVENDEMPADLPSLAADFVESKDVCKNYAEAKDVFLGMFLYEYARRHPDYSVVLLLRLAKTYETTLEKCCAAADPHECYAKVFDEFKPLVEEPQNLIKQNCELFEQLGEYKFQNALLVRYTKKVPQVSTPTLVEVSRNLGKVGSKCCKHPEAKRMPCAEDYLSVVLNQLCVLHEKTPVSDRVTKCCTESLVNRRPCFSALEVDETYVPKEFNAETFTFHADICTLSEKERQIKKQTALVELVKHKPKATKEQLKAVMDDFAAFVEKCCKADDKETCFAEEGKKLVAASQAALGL
# Assay: ELISA, lysate on plate-bound antigen
row,ELISA HSA (RSU),Binder
1,720 RSU,B1
2,640 RSU,B2
3,800 RSU,B3
4,1200 RSU,B4
5,1040 RSU,B5
6,640 RSU,B6
7,400 RSU,B7
8,800 RSU,B8
9,720 RSU,B9
10,640 RSU,B10
11,1120 RSU,B11
12,720 RSU,B12
13,640 RSU,B13

# Target: T1, recombinant biotinylated PD-L1 (rhPD-L1/Fc Chimera, R&D Systems 156-B7) (human, UniProt Q9NZQ7 19-238, biotinylated (sites not given))
# T1 construct: Bought Fc chimera; also called human PD-L1
# T1 sequence (Q9NZQ7 19-238, change not shown): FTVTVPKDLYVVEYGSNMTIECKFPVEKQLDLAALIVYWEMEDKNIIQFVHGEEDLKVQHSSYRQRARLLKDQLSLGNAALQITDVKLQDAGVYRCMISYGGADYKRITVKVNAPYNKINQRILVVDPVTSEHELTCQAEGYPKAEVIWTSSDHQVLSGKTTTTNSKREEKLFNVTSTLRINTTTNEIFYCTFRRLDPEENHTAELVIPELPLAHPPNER
# Assay: ELISA, lysate on plate-bound antigen
# Protocol: Streptavidin-coated Maxisorp plates (Nunc catalog 436110) were blocked for 1 h in Starting Block T20 (Pierce) and then coated with biotinylated PD-L1 (using same antigen as in panning) or negative controls (an unrelated Fc-fused recombinant protein and human serum albumin) for 1 h. Plates were rinsed with TBST and diluted lysate was applied to plates for 1 h. Following additional rinses, wells were treated with HRP-conjugated anti-FN3 domain antibody (PAB25) for 1 h and then assayed with POD (Roche catalog 11582950001).
row,ELISA PD-L1 Fc (RSU),Binder
1,11700 RSU,B1
2,513000 RSU,B2
3,368000 RSU,B3
4,2.82e+06 RSU,B4
5,516000 RSU,B5
6,431000 RSU,B6
7,1.48e+06 RSU,B7
8,743000 RSU,B8
9,13400 RSU,B9
10,412000 RSU,B10
11,927000 RSU,B11
12,697000 RSU,B12
13,577000 RSU,B13
